Laboratory results: patent US6355610B2 (priority 1998, dated 2002)
“Also recorded” adds a separate entry of the source. Ends that are not written are not given here.

Tests used:
[1] = target: hamster PrP conversion reaction (PrPsen to PrPres) (Mesocricetus auratus, UniProt P04273); assay: biochemical; parameters: species or system Syrian golden hamster
35S-HaPrPsen = 35S-HaPrPsen (Mesocricetus auratus, UniProt P04273); format: biochemical, hamster

Aβ1-40
inhibition of the conversion reaction (in words) [1]: gave no inhibition of conversion; also recorded: unable to inhibit the PrPsen to PrPres conversion at all concentrations tested | peptide induced aggregation of 35S-HaPrPsen (35S-HaPrPsen): caused aggregation and pelleting of 35S-HaPrPsen

GAVVGGLGGYMLGSAMSR [P119-130]
IC50 [1]: < 100 µM
